How the values were obtained:
[1] = target: Truncated Synechocystis FRP spanning amino acids 8-109 (Synechocystis sp. PCC 6803); assay: SEC-MALS + other: SAXS
SAXS = target: the molecule itself; assay: SAXS
[2] = target: T1, Synechocystis OCP lacking the N-terminal extension, construct OCP_(13-317), holoprotein (Synechocystis sp. PCC 6803, UniProt P74102 13-317); assay: SEC-MALS
T1 sequence: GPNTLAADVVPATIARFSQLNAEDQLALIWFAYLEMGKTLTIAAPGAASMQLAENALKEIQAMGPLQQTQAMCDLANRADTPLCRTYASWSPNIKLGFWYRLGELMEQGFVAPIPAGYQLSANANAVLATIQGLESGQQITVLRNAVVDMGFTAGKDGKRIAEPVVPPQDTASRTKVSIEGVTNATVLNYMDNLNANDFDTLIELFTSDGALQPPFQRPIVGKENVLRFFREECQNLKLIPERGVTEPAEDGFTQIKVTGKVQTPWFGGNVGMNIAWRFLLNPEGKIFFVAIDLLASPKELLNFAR

Truncated Synechocystis FRP spanning amino acids 8-109 (domain or fragment)
stoichiometry N [1]: 2

B1: Arthrospira maxima FRP (natural protein)
chain: MSEINWSEQDKNAAVDALHKAYEREVKILIDEVKQKAFNLTEIDEVWKLHDFLSARRHDIDGKYDYRDAASVFVLATLVKQGWLSLEELQVLGQDKLAKISALTRL
stoichiometry N (SAXS): 2 | stoichiometry N [2]: 1 FRP per OCP

B2: Synechocystis FRP (fluorescence recovery protein), wild-type construct with uncleavable N-terminal His6 tag and linker (natural protein)
chain: LQTAEAPWSQAETQSAHALFRKAYQRELDGLLATVQAQASQITQIDDLWKLHDFLSAKRHEIDGKYDDRQSVIIFVFAQLLKEGLVQAEELTFLAADKQSKIKALARL
stoichiometry N [2]: 2 FRP per OCP
